Reference: patent US20240034792A1 (HARBOUR BIOMED SHANGHAI, published 2024)
Read-outs that look alike come from different tables or passages of the source. Each block holds one binder with its values, some of them ahead of it.

Key:
[1] = target: T1, Human PD-1 expressed on CHO-K1 cells (CHO-K1/hPD-1) (human, UniProt Q15116 25-288); assay: FACS, CHO-K1/hPD-1 cells
T1 construct: whole, on cells; also called CHO-K1 cells overexpressing human PD-1
Protocol: (§1) In order to investigate the in vitro binding activity of the PD-1 antigen-binding proteins to human/cynomolgus monkey PD-1, the binding assay at the cellular level was performed using a CHO-K1 cell strain overexpressing human or cynomolgus monkey PD-1 (CHO-K1/hPD-1 or CHO-K1/cyno PD-1, from GenScript). Briefly, the CHO-K1-hPD-1 cells were digested and resuspended in an F-12K complete medium, and the cell density was adjusted to 1×10⁶ cells/mL. The cells were seeded in a 96-well V-bottom plate (Corning, Cat#3894) at 100 μL/well, followed by the addition of the test antigen-binding proteins with concentrations 2-fold of final concentrations obtained by 5-fold gradient dilution were each added at 100 μL/well. The mixtures were well mixed. The maximum final concentration of the antigen-binding proteins was 100 nM or 300 nM. A total of 8-11 concentrations were set. hIgG was used as a control. The cells were incubated at 4° C. for 1 h away from light. Thereafter, the cells in each well were rinsed twice with 100 μL of pre-cooled PBS, and centrifuged at 500 g at 4° C. for 5 min, and then the supernatant was discarded. Then 100 μL of a fluorescent secondary antibody (goat anti-human IgG (H+L) secondary antibody, Alexa Fluor® 488 conjugate, Invitrogen, Cat #A11013, 1:1000) was added to each well. The plate was incubated away from light at 4° C. for 30 min. The cells in each well were rinsed twice with 200 μL of pre-cooled PBS, and centrifuged at 500 g at 4° C. for 5 min, and then the supernatant was discarded. Finally, the cells in each well were resuspended in 200 μL of pre-cooled PBS, and the fluorescence signal values were read using a BD FACS CANTOII.

[2] = target: T2, Human PD-1 protein with histidine and avi tags (ACRO Biosystems, PD1-H82E4) (human, UniProt Q15116 25-167); assay: BLI (Octet Red96e), PD-1 captured on SA sensor, 1:1 local fit
T2 construct: Captured on streptavidin (SA) sensors in the BLI assay; not shown: histidine and avi tags
T2 sequence (Q15116 25-167 limits assumed): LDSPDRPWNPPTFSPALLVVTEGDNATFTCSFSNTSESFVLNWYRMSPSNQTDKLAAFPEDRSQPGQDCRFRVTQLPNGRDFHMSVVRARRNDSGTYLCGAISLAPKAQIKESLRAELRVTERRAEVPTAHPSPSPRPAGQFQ
Protocol: (§2) Human PD-1 proteins with histidine and avi tags were purchased from the manufacturer ACRO Biosystems (Cat#: PD1-H82E4), and the assay buffer was 1× kinetics buffer (diluted from 10× kinetics buffer (ForteBio, Cat#: 18-1105)) for kinetic assay and dilution of antigens and antibodies. The binding kinetics between the antigen and the antibody was analyzed by the biolayer interferometry (BLI) technique using an Octet molecular interaction analyzer (ForteBio, model: Octet Red96e).
(§3) When the binding kinetics between the antigen and the antibody was determined, the rotation speed of the sensor was set at 1000 rpm/min. The eight SA sensors placed in a column were first equilibrated in an assay buffer for 10 min and then used to capture PD-1 at a capture height of 0.5 nm. Thereafter, the SA sensors were equilibrated in the assay buffer for 100 s, and then were associated with each antibody diluted to a single concentration and with a row of blank buffer wells for 180 s, followed by dissociation for 600 s. A new column of SA sensors were used in each cycle.
(§4) When data analysis was performed using Octet Data Analysis software (Fortebio, version 11.0), the reference signals were subtracted by a single reference mode (reference well), the data were fitted by a “1:1 Local fitting” method, and the kinetic parameters of the binding of the antigen to the antibody were calculated to obtain kon (1/Ms) values, kdis (1/s) values and KD (M) values.

[3] = target: T1, Human PD-1 expressed on CHO-K1 cells …; assay: FACS, CHO-K1/hPD-1 cells; remark: listed apart in the source
Protocol: as §1

[4] = target: T2, Human PD-1 protein with histidine and …; assay: BLI; ratio of kdis, apparently PR005090 over the variant
Protocol: as §2, §3, §4

[5] = target: T1, Human PD-1 expressed on CHO-K1 cells …; assay: FACS blocking of biotin-labeled human PD-L1 binding to CHO-K1-hPD-1 cells
Protocol: Briefly, the CHO-K1-hPD-1 cells were digested and resuspended in an F-12K complete medium, and the cell density was adjusted to 1×10⁶ cells/mL. The cells were seeded in a 96-well V-bottom plate (Corning, Cat#3894) at 100 μL/well, followed by the addition of the test antigen-binding proteins with concentrations 2-fold of final concentrations obtained by 3-fold or 5-fold gradient dilution were each added at 100 μL/well. The mixtures were well mixed. The maximum final concentration of the antigen-binding proteins was 100 nM or 300 nM. A total of 8 concentrations were set. hIgG was used as a control. The cells were incubated at 4° C. for 1 h away from light. […] The cells were incubated at 4° C. away from light for 30 min. The cells in each well were rinsed twice with 100 μL of pre-cooled PBS, and centrifuged at 500 g at 4° C. for 5 min, and then the supernatant was discarded. A fluorescent secondary antibody (PE Streptavidin, BD, Cat# 554061, 1:200) was added at 100 μL/well, and the cells were incubated at 4° C. away from light for 30 min. The cells in each well were rinsed twice with 200 μL of pre-cooled PBS, and centrifuged at 500 g at 4° C. for 5 min, and then the supernatant was discarded. Finally, the cells in each well were resuspended in 200 μL of pre-cooled PBS, the fluorescence signal values were read using a BD FACS CANTOII, and the IC₅₀ values were calculated.

T1 sequence (Q15116 25-288): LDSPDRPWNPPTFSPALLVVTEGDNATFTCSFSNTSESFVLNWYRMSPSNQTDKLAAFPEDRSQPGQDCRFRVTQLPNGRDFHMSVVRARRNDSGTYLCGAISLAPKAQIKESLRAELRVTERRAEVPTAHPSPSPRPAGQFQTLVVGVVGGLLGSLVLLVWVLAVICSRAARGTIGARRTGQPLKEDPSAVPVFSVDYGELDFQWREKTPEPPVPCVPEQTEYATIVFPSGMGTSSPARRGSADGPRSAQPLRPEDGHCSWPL

B1: PR005090 (VHH)
VHH: EVQLVETGGGLIQPGGSLRLSCAASGFNVSSHYMSWVRQAPGKGREWVSIIDGGGSTYYADSVKGRFTISRDNSKNRLYLQMNSLRAEDTAMYYCARATAVAEKNGYNYPFNYWGQGTLVTVSS
notes: Monovalent single-domain (VH) antibody with Flag-6His tag
EC50 [1]: 48.9 nM
MFI Maximum [1]: 4150
Kd [2]: 20.8 nM
koff [2]: 0.00114 s⁻¹
kon [2]: 55000 M⁻¹ s⁻¹
EC50 [3]: 48.9 nM
MFI Maximum [3]: 4150

B2: PR005147 (VHH)
VHH: EVQLVETGGGLIQPGGSLRLSCAASGFNVSYYYMSWVRQAPGKGREWVSIIDKAGSTYYGASVKGRFTISRDNSKNRLYLQMNSLRAEDTAMYYCARATMVREKNGYNYPFNYWGQGTLVTVSS
notes: Monovalent single-domain (VH) variant of PR002481 with Flag-6His tag
kdis ratio [4]: 41.7
Kd [2]: 16.5 nM
koff [2]: 2.74e-05 s⁻¹
kon [2]: 1660 M⁻¹ s⁻¹
EC50 [3]: 382 nM
MFI Maximum [3]: 18000

B3: PR005093 (VHH)
VHH: EVQLVETGGGLIQPGGSLRLSCAASGFNVSSHYMSWVRQAPGKGREWVSIIDGGGSTYYADSVKGRFTISRDNSKNRLYLQMNSLRAEDTAMYYCARATRVREANGYNYPFNYWGQGTLVTVSS
notes: as for B2
EC50 [1]: 10.5 nM
MFI Maximum [1]: 4530
kdis ratio [4]: 1.8
Kd [2]: 4.82 nM
koff [2]: 0.000636 s⁻¹
kon [2]: 132000 M⁻¹ s⁻¹

B4: PR005146 (VHH)
VHH: EVQLVETGGGLIQPGGSLRLSCAASGFNVSFHYMSWVRQAPGKGREWVSIIDGAGSGYYAASVKGRFTISRDNSKNRLYLQMNSLRAEDTAMYYCARATMVREKQGYNYPFNYWGQGTLVTVSS
notes: as for B2
kdis ratio [4]: 1.89
Kd [2]: 1020 nM
koff [2]: 0.000605 s⁻¹
kon [2]: 593 M⁻¹ s⁻¹

B9: PR005141 (VHH)
VHH: EVQLVETGGGLIQPGGSLRLSCAASGFNVSYFYMSWVRQAPGKGREWVSIIDKGGSGYYAASVKGRFTISRDNSKNRLYLQMNSLRAEDTAMYYCARATEVREKNGYNYPFNYWGQGTLVTVSS
notes: as for B2
kdis ratio [4]: 14.7
Kd [2]: 1.49 nM
koff [2]: 7.75e-05 s⁻¹
kon [2]: 52100 M⁻¹ s⁻¹
EC50 [3]: 110 nM
MFI Maximum [3]: 13300

B13: PR005142 (VHH)
VHH: EVQLVETGGGLIQPGGSLRLSCAASGFNVSFYYMSWVRQAPGKGREWVSIIDKGGSGYYAASVKGRFTISRDNSKNRLYLQMNSLRAEDTAMYYCARATEVREKNGYNYPFNYWGQGTLVTVSS
notes: as for B2
kdis ratio [4]: 20.6
Kd [2]: 6.76 nM
koff [2]: 5.55e-05 s⁻¹
kon [2]: 8200 M⁻¹ s⁻¹
EC50 [3]: 70.9 nM
MFI Maximum [3]: 12400

More lines, in order of falling EC50 [3], values ahead:

IC50 [5]: 7.7 nM
Maximum inhibition rate (%) [5]: 67.5%
EC50 [3]: 29.3 nM
MFI Maximum [3]: 955000
B15: PR002477 (antibody, human IgG1, V domains shown)
VH: EVQLVETGGGLIQPGGSLRLSCAASGFNVSSHYMSWVRQAPGKGLEWVSIIHSGGSTYYADSVKGRFTISRDNSKNRLYLQMNSLRAEDTAVYYCARAIAVAEKNGYNYPFNYWGQGTLVTVSS
notes: Heavy-chain-only antibody (HCAb), human IgG1 Fc; two heavy chains, no light chain; also called R4004P547H9

kdis ratio [4]: 20
Kd [2]: 1.21 nM
koff [2]: 5.72e-05 s⁻¹
kon [2]: 47200 M⁻¹ s⁻¹
EC50 [3]: 27.6 nM
MFI Maximum [3]: 11700
B8: PR005148 (VHH)
VHH: EVQLVETGGGLIQPGGSLRLSCAASGFNVSSHYMSWVRQAPGKGREWVSIIDKAGSGYYAASVKGRFTISRDNSKNRLYLQMNSLRAEDTAMYYCARATEVREKNGYNYPFNYWGQGTLVTVSS
notes: as for B2

IC50 [5]: 4.79 nM
Maximum inhibition rate (%) [5]: 62.2%
EC50 [3]: 25.6 nM
MFI Maximum [3]: 1.04e+06
B5: PR002473 (antibody, human IgG1, V domains shown)
VH: EVQLVETGGGLIQPGGSLRLSCAASGFNVSSHYMSWVRQAPGKGLEWVSIIHSGGSTYYADSVKGRFTISRDNSKNRLYLQMNSLIAEDTAVYYCARAIAVAEKNGYNYPFNYWGQGTLVTVSS
notes: Heavy-chain-only antibody (HCAb), human IgG1 Fc; two heavy chains, no light chain; also called R4004P541H11

kdis ratio [4]: 25.2
Kd [2]: 4.51 nM
koff [2]: 4.52e-05 s⁻¹
kon [2]: 10000 M⁻¹ s⁻¹
EC50 [3]: 22.9 nM
MFI Maximum [3]: 11600
B6: PR005144 (VHH)
VHH: EVQLVETGGGLIQPGGSLRLSCAASGFNVSFYYMSWVRQAPGKGREWVSIIDKSGSTYYAASVKGRFTISRDNSKNRLYLQMNSLRAEDTAMYYCARATEVREKNGYNYPFNYWGQGTLVTVSS
notes: as for B2

Kd [2]: < 0.001 nM
koff [2]: < 1e-07 s⁻¹
kon [2]: 59000 M⁻¹ s⁻¹
EC50 [3]: 22.4 nM
MFI Maximum [3]: 10400
B12: PR005150 (VHH)
VHH: EVQLVETGGGLIQPGGSLRLSCAASGFNVSSFYMSWVRQAPGKGREWVSIIDKAGSTYYGASVKGRFTISRDNSKNRLYLQMNSLRAEDTAMYYCARATEVREKQGYNYPFNYWGQGTLVTVSS
notes: as for B2

IC50 [5]: 54.5 nM
Maximum inhibition rate (%) [5]: 97%
EC50 [3]: 20.6 nM
MFI Maximum [3]: 953000
B11: PR002478 (antibody, human IgG1, V domains shown)
VH: EVQLVETGGGLIQPGGSLRLSCAASGFNVSSNYMSWVRQAPGKGLEWVSIIHSGGSTYYADSVKGRFTISRDNSKNRLYLQMNSLRAEDTAVYYCARAIAVAEKNGYNYPFNYWGQGTLVTVSS
notes: Heavy-chain-only antibody (HCAb), human IgG1 Fc; two heavy chains, no light chain; also called R4004P548A8

IC50 [5]: 37.5 nM
Maximum inhibition rate (%) [5]: 92.1%
EC50 [3]: 18.5 nM
MFI Maximum [3]: 959000
B14: PR002475 (antibody, human IgG1, V domains shown)
VH: EVQLVETGGGLIQPGGSLRLSCAASGFNVSSNYMSWVRQAPGKGLEWVSIIHSGGSTYYADSVKGRFTISRDNSKNTLYLQMNSLRAEDTAVYYCARAIAVAEKNGYNYPFNYWGQGTLVTVSS
notes: Heavy-chain-only antibody (HCAb), human IgG1 Fc; two heavy chains, no light chain; also called R4004P547D9

kdis ratio [4]: 21.8
Kd [2]: 5.31 nM
koff [2]: 5.24e-05 s⁻¹
kon [2]: 9860 M⁻¹ s⁻¹
EC50 [3]: 18 nM
MFI Maximum [3]: 10500
B10: PR005145 (VHH)
VHH: EVQLVETGGGLIQPGGSLRLSCAASGFNVSFYYMSWVRQAPGKGREWVSIIDKGGSTYYGDSVKGRFTISRDNSKNRLYLQMNSLRAEDTAMYYCARATEVREKNGYNYPFNYWGQGTLVTVSS
notes: as for B2

kdis ratio [4]: 23.7
Kd [2]: 14 nM
koff [2]: 4.83e-05 s⁻¹
kon [2]: 3450 M⁻¹ s⁻¹
EC50 [3]: 10.9 nM
MFI Maximum [3]: 11100
B7: PR005149 (VHH)
VHH: EVQLVETGGGLIQPGGSLRLSCAASGFNVSSHYMSWVRQAPGKGREWVSIIDKAGSGYYADSVKGRFTISRDNSKNRLYLQMNSLRAEDTAMYYCARATEVREKQGYNYPFNYWGQGTLVTVSS
notes: as for B2
